From article PMC2891263 (Biochemistry, 2010)

Experiments:
[1] = target: rhodamine-labeled MetJ (MetJ-A1C-rhodamine) (E. coli) (UniProt P0A8U6); test: AUC
AUC = target: the molecule itself; test: AUC

| Molecule | stoichiometry N [1] | stoichiometry N (AUC) |
| --- | --- | --- |
| rhodamine-labeled MetJ (MetJ-A1C-rhodamine) (from UniProt P0A8U6 1-105) (natural protein) | 2 | – |
| unlabeled MetJ (methionine repressor protein) (natural protein, E. coli, UniProt P0A8U6 1-105, looked up) MAEWSGEYISPYAEHGKKSEQVKKITVSIPLKVLKILTDERTRRQVNNLRHATNSELLCEAFLHAFTGQPLPDDADLRKERSDEIPEAAKEIMREMGINPETWEY | – | 2 |
